Assays:
[1] = molecular target: DGLα C-terminal domain, 761-1042 (UniProt Q9Y4D2); test: GST cosedimentation, CaMKII blot; details: reference: non-phosphorylated CaMKIIα; sites T286
[2] = molecular target: GST fusion protein containing the C-terminal domain (CTD; residues 761-1042) of DGLα (UniProt Q9Y4D2); test: pull-down
DGLα = DGLα (UniProt Q9Y4D2); test: anti-V5 co-immunoprecipitation, CaMKIIα blot; details: reference: wild type CaMKIIα; sites T286
[3] = molecular target: DGLα-V5 (full-length diacylglycerol lipase-α with a C-terminal V5-epitope tag) (UniProt Q9Y4D2); test: co-IP

Substance: CaMKIIα (from UniProt P11798) Thr286-autophosphorylated CaMKIIα
- other: bound CaMKII normalised to input aliquot [1]: gained; reference 0.11±0.03

Substance: purified Thr286-autophosphorylated CaMKIIα (from UniProt P11798 1-478) (enzyme)
- CaMKII detected, normalized to the input [2]: 0.37

Substance: CaMKIIα (from UniProt P11798) T286A
- percent of reference (DGLα): weaker; reference 100±5%

Substance: WT CaMKIIα expressed in HEK293T cells (from UniProt P11798 1-478) (enzyme)
- interaction with DGLα-V5, percent of WT [3]: 100%
